Results published in patent publication US20120207760A1 (THERACLONE SCIENCES, published 2012).

Target: Hemagglutinin of influenza A/Solomon Islands/3/06 (H1N1), on inactivated whole virions (Influenza A virus A/Solomon …)
Experiment: ELISA, B cell culture supernatant on inactivated whole virions

Binder | OD450 [OD450]
TCN-544 (5082_A19) (antibody, V domains shown) VH: QVQLQESGPGLVKPSETLSLTCTVSRGSIGHYFWSWIRQPPGKGLEWIGYISYSGSTKYNPSLRSRVTISVDTSKNQFSLNLNSVTATDTALYYCAREDYDILTGAGPGMEVWGQGTTVTVSS VL: QSMLTQPPSASGTPGQRVTISCSGSSSNIGSNTVNWFKHLPGTAPKLLIYRNDLRPSGVPDRFSGSKSGTSASLAISGLQSEDEADYYCATWDDSLNGFYVFGTGTKVTVL | 0.32
TCN-547 (5092_F11) (antibody, V domains shown) VH: QVQLQESGPGLVKPSQTLSLTCTVSGDSISSVDHYWSWIRQHPVKGLEWIGFMYYSASTYYNPSLKSRVTISTDTSKNQFSLRLSSVTAADTAVYYCARGTCAGDCSLHYYYYGLDVWGQGRTVTVSS VL: DIQMTQSPSSLSASVGDRVTITCRASQSISSYLNWYQHKPGKAPKVLMYAVSILQSGVPSRFSGSGSGADFTLTISSLQPEDFATYYCQQSYSSPLTFGGGTKVEIK | 0.06
TCN-550 (5096_F06) (antibody, V domains shown) VH: QVQLQESGPGLVKPSETLSLTCTVSGASINSHYWSWIRQPPGKGLEWIGYVYYSGSTTYNPSLKSRVTLSVDTSKNQFSLNLSSVTAADTAFYYCARHPYDVLTGSGDWFDPWGQGTLVTVSS VL: SYVLTQAPSVSVAPGQTARITCGGNAIGSKKVHWYQHKAGQAPVLVVYDDTDRPSGIPERFSGSNSWSTATLTINRVEAGDEADYYCQVWDFTIDHVVFGGGTKLTVL | 0.06
TCN-543 (5081_G23) (antibody, V domains shown) VH: QVHLVQSGAEVRKPGDSVKVSCKTSGYTFSTYPVAWVRQVPGQGLEWMGWISTYNGNTNFAQNFQGRVTLTTDTTTNTAYMEVRSLKFDDTAVYYCARVEGSYRDFWNNQNRFDPWGQGTLVTVSS VL: SYVLTQPPSVSVAPGQTARISCGGSNIGGKSVHWYQQKPGQAPVLVVYDDSGRPSGIPERFSGSNSGDTATLTISRVEAGDEADYFCQVWDNFGGVFGTGTKVTVL | 3.63
TCN-546 (5089_L08) (antibody, V domains shown) VH: QVQLQQWGAGLLKPSETLSLTCGVYGGSLSDYYWSWIRQPPGKGLEWIGEINHSGGTNYNPSLKRRVTISVDTSKKQFSLKMNSVTAADTAVYYCARGTDPDTEVYCRAGNCAAFDFWGQGTLVTVSS VL: EIVLTQSPGTLSLSPGERATLSCRASHFVIGRAVAWYQQKPGQAPRLLIYGASSRATGIPDRFSGSGSGTDFTLTISRLETEDFAVFYCQHYGSSPRYAFGQGTKLEIK | 1.95
TCN-548 (5092_P01) (antibody, V domains shown) VH: QVQLQESGPGLVKPSETLSLTCTVSSGPMSDYYWSWIRQPPGKGLEWIGHVSVSHGGRTKSNPSVMSRVTISVETSKNQFSLKLTSVTAADTAVYYCARLNYYDRSGYHSPDGPSNNWFDPWGQGTLVTVSS VL: not shown | 0.09
TCN-542 (5079_A16) (antibody, V domains shown) VH: QVQLQESGPGLVKPSQTLSLTCTVSGGSISSGNYYWNWVRQHPGKGLEWIGYIYYRGSTFYNPSLKSRVTISIDTSKNQFSLRLSSVTAADTAVYYCAKDTRSSLDNYQYGMDVWGQGTTVTVSS VL: QTVVTQEPSLTVSPGGTVTLTCASSTGAVTSSYFPNWFQQKPGQAPRPLIYSTTIRHSWTPARFSGSLLGGKAALTLSGVQPEDEADYYCLLYSGGDPVAFGGGTKLTVL | 3.66
TCN-545 (5082_I15) (antibody, V domains shown) VH: QVQLQQWGAGLLKPSETLSLSCAVFGGSFSDYYWTWIRQPPGKGLEWIGEIKHSGRTNYNPSLESRVTISVDTSKNQFSLKLSSVTAADTAIYYCARGTDPDTEGYCRSGSCSAFDFWGQGTLVTVSS VL: EIVLTQSPGTLSLSPGERATLSCRASHFVNYRSLAWYQQTPGQVPRLLIYGASTRATGIPDRFSGSGSGTDFTLTISRLEPEDFAVYFCQQYGGSPRYTFGQGTRLEIK | 3.32
TCN-549 (5092_P04) (antibody, V domains shown) VH: QVQLVQSGAEVKKPGASVKVSCKASGYTFTGYYMHWVRQAPGQGLEWMGWINPNSGDTNYAQKFQGRVTMTRDTSITTAYMELSSLRSDDTAVYYCARDSPYSSSWSFFDYWGQGPLVTVSS VL: not shown | 0.09
